Test results from PMC3899939, “IpsA, a novel LacI-type regulator, is required for inositol-derived lipid formation in Corynebacteria and Mycobacteria” (BMC Biology, 2013).
Residue numbers refer to the chain shown, from its start. Each block holds one molecule with its values, some of them ahead of it.

Experiments:
IpsA (Cg2910) = target: T1, IpsA (Cg2910) (Corynebacterium glutamicum, UniProt Q8NMF0); assay: EMSA, dissociation of IpsA-DNA complex (ino1 promoter); type: binding; settings: effector; IpsA preincubated 20 min with effector, then DNA; 50 mM Tris-HCl pH 7.5, 40 mM KCl, 5 mM MgCl2, room temperature
T1 construct: C-terminal STREP-tag variant (pAN6-ipsA-STREP), expressed in E. coli BL21(DE3), StrepTactin and gel filtration; 79 kDa, dimer
T1 sequence (Q8NMF0 1-358): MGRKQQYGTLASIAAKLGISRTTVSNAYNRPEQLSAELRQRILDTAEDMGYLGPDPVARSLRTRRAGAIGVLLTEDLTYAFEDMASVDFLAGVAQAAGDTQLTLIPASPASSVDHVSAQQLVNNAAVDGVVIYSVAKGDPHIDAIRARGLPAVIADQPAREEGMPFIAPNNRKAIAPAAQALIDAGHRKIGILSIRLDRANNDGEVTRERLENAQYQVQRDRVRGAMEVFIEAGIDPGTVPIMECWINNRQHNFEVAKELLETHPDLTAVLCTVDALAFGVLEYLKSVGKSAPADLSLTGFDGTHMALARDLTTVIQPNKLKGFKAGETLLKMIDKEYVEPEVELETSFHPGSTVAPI

IpsA-Strep = target: T2, IpsA-Strep (Corynebacterium glutamicum ATCC 13032, UniProt Q8NMF0 1-358); assay: EMSA; EMSA: 50 mM Tris-HCl pH 7.5, 40 mM KCl, 5 mM MgCl2, room temperature, 10 uL, DNA 0.028-1 uM, 10-15% native PAGE; settings: protein: recombinant; tags: C-terminal STREP-tag; chain copies: 2; blunt
T2 sequence: T1 sequence (Q8NMF0 1-358)

lowest concentration with observed effect (IpsA (Cg2910)): 0.2 mM
Molecule: O[C@H]1[C@H](O)[C@@H](O)[C@H](O)[C@@H](O)[C@H]1O [myo-I, myo-inositol]

B1: cg3323 M4 (dsDNA)
DNA 1: TTGAGTTGCTTGATCTCGCAGGTCTGATTT
DNA 2: AAATCAGACCTGCGAGATCAAGCAACTCAA
binding result (IpsA-Strep): no binding

B2: cg3323 M3 (dsDNA)
DNA 1: TTGAGTTGCTTGCGAGATCAGGTCTGATTT
DNA 2: AAATCAGACCTGATCTCGCAAGCAACTCAA
binding result (IpsA-Strep): no binding

B3: cg3323 M5 (dsDNA)
DNA 1: TTGAGTTGCTTGATCGATACTGTCTGATTT
DNA 2: AAATCAGACAGTATCGATCAAGCAACTCAA
binding result (IpsA-Strep): binds

B4: cg3323 WT 30-mer (dsDNA)
DNA 1: B3 DNA 1 with A19C, C20A, T21G
DNA 2: B3 DNA 2 with A10C, G11T, T12G
binding result (IpsA-Strep): binds
